± gives the standard deviation of the averaged measurements.
Assay: total protein half-life in vivo (active degradation + dilution); higher = more stable protein
[1] = E. coli NCM3722 delta-clpP delta-lon delta-hslV, growth: N-lim chemostat, doubling time 6 h
[2] = E. coli NCM3722 delta-clpP, growth: N-lim chemostat, doubling time 6 h
[3] = E. coli NCM3722 delta-hslV, growth: N-lim chemostat, doubling time 6 h
[4] = E. coli NCM3722 delta-lon, growth: N-lim chemostat, doubling time 6 h
[5] = E. coli NCM3722 delta-smpB, growth: N-lim chemostat, doubling time 6 h
[6] = wild type E. coli NCM3722, growth: C-lim chemostat, doubling time 3 h
[7] = wild type E. coli NCM3722, growth: C-lim chemostat, doubling time 6 h
[8] = wild type E. coli NCM3722, growth: N-lim chemostat, doubling time 6 h
[9] = wild type E. coli NCM3722, growth: N-lim chemostat, doubling time 12 h
[10] = wild type E. coli NCM3722, growth: P-lim chemostat, doubling time 6 h
[11] = wild type E. coli NCM3722, growth: P-lim chemostat, doubling time 12 h
[12] = wild type E. coli NCM3722, growth: C-lim chemostat, doubling time 12 h

## MQTQVLFEHPLNEKMRTWLRIEFLIQQLTVNLPIVDHAGALHFFRNVSELLDVFERGEVRTELLKELDRQQRKLQTWIGVPGVDQSRIEALIQQLKAAGSVLISAPRIGQFLREDRLIALVRQRLSIPGGCCSFDLPTLHIWLHLPQAQRDSQVETWIASLNPLTQALTMVLDLIRQSAPFRKQTSLNGFYQDNGGDADLLRLNLSLDSQLYPQISGHKSRFAIRFMPLDTENGQVPERLDFELACC
[1]
  total protein half-life in vivo: 6.32 ± 0.19 h
[2]
  total protein half-life in vivo: 6.18 ± 0.41 h
[3]
  total protein half-life in vivo: 6.06 ± 1.5 h
[4]
  total protein half-life in vivo: 5.0717 ± 0.004 h
[5]
  total protein half-life in vivo: 4.94 ± 0.2 h
[6]
  total protein half-life in vivo: 2.66 ± 0.025 h
[7]
  total protein half-life in vivo: 6.55 ± 0.5 h
[8]
  total protein half-life in vivo: 4.87 ± 1.7 h
[9]
  total protein half-life in vivo: 11.4 ± 6.5 h
[10]
  total protein half-life in vivo: 5.66 ± 0.3 h
[11]
  total protein half-life in vivo: 12.3 ± 1.5 h

## MQTSPLLTQLMEALRCLPGVGPKSAQRMAFTLLQRDRSGGMRLAQALTRAMSEIGHCADCRTFTEQEVCNICSNPRRQENGQICVVESPADIYAIEQTGQFSGRYFVLMGHLSPLDGIGPDDIGLDRLEQRLAEEKITEVILATNPTVEGEATANYIAELCAQYDVEASRIAHGVPVGGELEMVDGTTLSHSLAGRHKIRF [P0A7H6]
[1]
  total protein half-life in vivo: 5.56 ± 0.29 h
[2]
  total protein half-life in vivo: 5.19 ± 0.32 h
[3]
  total protein half-life in vivo: 4.36 ± 0.27 h
[4]
  total protein half-life in vivo: 4.59 ± 0.36 h
[5]
  total protein half-life in vivo: 4.21 ± 0.85 h
[6]
  total protein half-life in vivo: 2.52 ± 0.099 h
[7]
  total protein half-life in vivo: 4.09 h
[12]
  total protein half-life in vivo: 8.57 ± 0.99 h
[8]
  total protein half-life in vivo: 4.67 h
[9]
  total protein half-life in vivo: 6.74 ± 0.68 h
[10]
  total protein half-life in vivo: 4.79 ± 0.23 h
[11]
  total protein half-life in vivo: 8.59 h

## MQVLHVCSEMFPLLKTGGLADVIGALPAAQIADGVDARVLLPAFPDIRRGVTDAQVVSRRDTFAGHITLLFGHYNGVGIYLIDAPHLYDRPGSPYHDTNLFAYTDNVLRFALLGWVGAEMASGLDPFWRPDVVHAHDWHAGLAPAYLAARGRPAKSVFTVHNLAYQGMFYAHHMNDIQLPWSFFNIHGLEFNGQISFLKAGLYYADHITAVSPTYAREITEPQFAYGMEGLLQQRHREGRLSGVLNGVDEKIWSPETDLLLASRYTRDTLEDKAENKRQLQIAMGLKVDDKVPLFAVVSRLTSQKGLDLVLEALPGLLEQGGQLALLGAGDPVLQEGFLAAAAEYPGQVGVQIGYHEAFSHRIMGGADVILVPSRFEPCGLTQLYGLKYGTLPLVRRTGGLADTVSDCSLENLADGVASGFVFEDSNAWSLLRAIRRAFVLWSRPSLWRFVQRQAMAMDFSWQVAAKSYRELYYRLK [P0A6U8]
[1]
  total protein half-life in vivo: 6.98 ± 0.61 h
[2]
  total protein half-life in vivo: 6.92 ± 1.1 h
[3]
  total protein half-life in vivo: 6.028 ± 0.0091 h
[4]
  total protein half-life in vivo: 5.806 ± 0.035 h
[5]
  total protein half-life in vivo: 5.83 ± 0.06 h
[6]
  total protein half-life in vivo: 3.03 ± 0.11 h
[7]
  total protein half-life in vivo: 6.7 ± 0.36 h
[12]
  total protein half-life in vivo: 11.4 ± 0.49 h
[8]
  total protein half-life in vivo: 6.21 ± 0.21 h
[9]
  total protein half-life in vivo: 13.2 ± 2 h
[10]
  total protein half-life in vivo: 6.32 ± 0.3 h
[11]
  total protein half-life in vivo: 12.4 ± 0.65 h

## MQVLPPSSTGGPSRLFIMRPVATTLLMVAILLAGIIGYRALPVSALPEVDYPTIQVVTLYPGASPDVMTSAVTAPLERQFGQMSGLKQMSSQSSGGASVITLQFQLTLPLDVAEQEVQAAINAATNLLPSDLPNPPVYSKVNPADPPIMTLAVTSTAMPMTQVEDMVETRVAQKISQISGVGLVTLSGGQRPAVRVKLNAQAIAALGLTSETVRTAITGANVNSAKGSLDGPSRAVTLSANDQMQSAEEYRQLIIAYQNGAPIRLGDVATVEQGAENSWLGAWANKEQAIVMNVQRQPGANIISTADSIRQMLPQLTESLPKSVKVTVLSDRTTNIRASVDDTQFELMMAIALVVMIIYLFLRNIPATIIPGVAVPLSLIGTFAVMVFLDFSINNLTLMALTIATGFVVDDAIVVIENISRYIEKGEKPLAAALKGAGEIGFTIISLTFSLIAVLIPLLFMGDIVGRLFREFAITLAVAILISAVVSLTLTPMMCARMLSQESLRKQNRFSRASEKMFDRIIAAYGRGLAKVLNHPWLTLSVALSTLLLSVLLWVFIPKGFFPVQDNGIIQGTLQAPQSSSFANMAQRQRQVADVILQDPAVQSLTSFVGVDGTNPSLNSARLQINLKPLDERDDRVQKVIARLQTAVDKVPGVDLFLQPTQDLTIDTQVSRTQYQFTLQATSLDALSTWVPQLMEKLQQLPQLSDVSSDWQDKGLVAYVNVDRDSASRLGISMADVDNALYNAFGQRLISTIYTQANQYRVVLEHNTENTPGLAALDTIRLTSSDGGVVPLSSIAKIEQRFAPLSINHLDQFPVTTISFNVPDNYSLGDAVQAIMDTEKTLNLPVDITTQFQGSTLAFQSALGSTVWLIVAAVVAMYIVLGILYESFIHPITILSTLPTAGVGALLALLIAGSELDVIAIIGIILLIGIVKKNAIMMIDFALAAEREQGMSPREAIYQACLLRFRPILMTTLAALLGALPLMLSTGVGAELRRPLGIGMVGGLIVSQVLTLFTTPVIYLLFDRLALWTKSRFARHEEEA
[1]
  total protein half-life in vivo: 6.53 ± 0.31 h
[2]
  total protein half-life in vivo: 6.24 ± 0.12 h
[3]
  total protein half-life in vivo: 6.58 ± 0.74 h
[4]
  total protein half-life in vivo: 6.07 ± 0.56 h
[5]
  total protein half-life in vivo: 5.45 ± 0.45 h
[6]
  total protein half-life in vivo: 2.98 h
[7]
  total protein half-life in vivo: 6.17 ± 0.74 h
[8]
  total protein half-life in vivo: 6.15 ± 0.94 h
[9]
  total protein half-life in vivo: 13.1 ± 0.4 h
[10]
  total protein half-life in vivo: 7.07 ± 0.49 h
[11]
  total protein half-life in vivo: 12.347 ± 0.0014 h

## MQYHRIPHSSLEVSTLGLGTMTFGEQNSEADAHAQLDYAVAQGINLIDVAEMYPVPPRPETQGLTETYVGNWLAKHGSREKLIIASKVSGPSRNNDKGIRPDQALDRKNIREALHDSLKRLQTDYLDLYQVHWPQRPTNCFGKLGYSWTDSAPAVSLLDTLDALAEYQRAGKIRYIGVSNETAFGVMRYLHLADKHDLPRIVTIQNPYSLLNRSFEVGLAEVSQYEGVELLAYSCLGFGTLTGKYLNGAKPAGARNTLFSRFTRYSGEQTQKAVAAYVDIARRHGLDPAQMALAFVRRQPFVASTLLGATTMDQLKTNIESLHLELSEDVLAEIEAVHQVYTYPAP [P0A9T4]
[1]
  total protein half-life in vivo: 5.76 ± 0.33 h
[2]
  total protein half-life in vivo: 5.29 ± 0.14 h
[3]
  total protein half-life in vivo: 5.5 ± 0.14 h
[4]
  total protein half-life in vivo: 4.99 ± 0.068 h
[5]
  total protein half-life in vivo: 4.6 ± 0.38 h
[6]
  total protein half-life in vivo: 3.41 ± 0.077 h
[7]
  total protein half-life in vivo: 5.9 ± 0.19 h
[12]
  total protein half-life in vivo: 10.4 ± 0.85 h
[8]
  total protein half-life in vivo: 4.88 ± 0.55 h
[9]
  total protein half-life in vivo: 8.51 ± 0.57 h
[10]
  total protein half-life in vivo: 6.32 ± 0.44 h
[11]
  total protein half-life in vivo: 12.8 ± 0.13 h

## MQYIKIHALDNVAVALADLAEGTEVSVDNQTVTLRQDVARGHKFALTDIAKGANVIKYGLPIGYALADIAAGVHVHAHNTRTNLSDLDQYRYQPDFQDLPAQAADREVQIYRRANGDVGVRNELWILPTVGCVNGIARQIQNRFLKETNNAEGTDGVFLFSHTYGCSQLGDDHINTRTMLQNMVRHPNAGAVLVIGLGCENNQVAAFRETLGDIDPERVHFMICQQQDDEIEAGIEHLHQLYNVMRNDKREPGKLSELKFGLECGGSDGLSGITANPMLGRFSDYVIANGGTTVLTEVPEMFGAEQLLMDHCRDEATFEKLVTMVNDFKQYFIAHDQPIYENPSPGNKAGGITTLEDKSLGCTQKAGSSVVVDVLRYGERLKTPGLNLLSAPGNDAVATSALAGAGCHMVLFSTGRGTPYGGFVPTVKIATNSELAAKKKHWIDFDAGQLIHGKAMPQLLEEFIDTIVEFANGKQTCNERNDFRELAIFKSGVTL
[1]
  total protein half-life in vivo: 4.17 ± 0.22 h
[2]
  total protein half-life in vivo: 3.03 ± 0.15 h
[3]
  total protein half-life in vivo: 2.65 ± 0.042 h
[4]
  total protein half-life in vivo: 3.4 h
[5]
  total protein half-life in vivo: 2.51 ± 0.36 h
[6]
  total protein half-life in vivo: 2.61 ± 0.27 h
[7]
  total protein half-life in vivo: 3.9 ± 0.23 h
[12]
  total protein half-life in vivo: 4.43 ± 0.69 h
[8]
  total protein half-life in vivo: 2.63 ± 0.13 h
[9]
  total protein half-life in vivo: 3.74 ± 0.76 h
[10]
  total protein half-life in vivo: 3.94 ± 1.4 h
[11]
  total protein half-life in vivo: 6.84 ± 1.4 h

## MQYWGKIIGVAVALLMGGGFWGVVLGLLIGHMFDKARSRKMAWFANQRERQALFFATTFEVMGHLTKSKGRVTEADIHIASQLMDRMNLHGASRTAAQNAFRVGKSDNYPLREKMRQFRSVCFGRFDLIRMFLEIQIQAAFADGSLHPNERAVLYVIAEELGISRAQFDQFLRMMQGGAQFGGGYQQQTGGGNWQQAQRGPTLEDACNVLGVKPTDDATTIKRAYRKLMSEHHPDKLVAKGLPPEMMEMAKQKAQEIQQAYELIKQQKGFK
[2]
  total protein half-life in vivo: 6.42 ± 1.5 h
[4]
  total protein half-life in vivo: 5.92 ± 0.42 h
[5]
  total protein half-life in vivo: 5.91 ± 0.58 h
[6]
  total protein half-life in vivo: 2.98 ± 0.14 h
[7]
  total protein half-life in vivo: 5.97 ± 0.2 h
[12]
  total protein half-life in vivo: 11.2 ± 0.66 h
[8]
  total protein half-life in vivo: 6.24 ± 0.77 h
[9]
  total protein half-life in vivo: 11.8 ± 1 h
[10]
  total protein half-life in vivo: 6.61 ± 0.12 h
[11]
  total protein half-life in vivo: 12.7 ± 1 h

Reference: the supplement of paper PMC11246515
